In patent publication US20070066809A1:
Where no end group is shown, it is not given here. [ ]: non-standard residue; d: D form. pGlu = O=C1CC[C@@H](C(=O)O)N1

B1: human gastrin-34 (G34), amidated (peptide)
peptide: [pGlu]LGPQGPPHLVADPSKKEGPWLEEEEEAYGWMDF-NH2
SMILES: CSCC[C@H](NC(=O)[C@H](Cc1c[nH]c2ccccc12)NC(=O)CNC(=O)[C@H](Cc1ccc(O)cc1)NC(=O)[C@H](C)NC(=O)[C@H](CCC(=O)O)NC(=O)[C@H](CCC(=O)O)NC(=O)[C@H](CCC(=O)O)NC(=O)[C@H](CCC(=O)O)NC(=O)[C@H](CCC(=O)O)NC(=O)[C@H](CC(C)C)NC(=O)[C@H](Cc1c[nH]c2ccccc12)NC(=O)[C@@H]1CCCN1C(=O)CNC(=O)[C@H](CCC(=O)O)NC(=O)[C@H](CCCCN)NC(=O)[C@H](CCCCN)NC(=O)[C@H](CO)NC(=O)[C@@H]1CCCN1C(=O)[C@H](CC(=O)O)NC(=O)[C@H](C)NC(=O)[C@@H](NC(=O)[C@H](CC(C)C)NC(=O)[C@H](Cc1c[nH]cn1)NC(=O)[C@@H]1CCCN1C(=O)[C@@H]1CCCN1C(=O)CNC(=O)[C@H](CCC(N)=O)NC(=O)[C@@H]1CCCN1C(=O)CNC(=O)[C@H](CC(C)C)NC(=O)[C@@H]1CCC(=O)N1)C(C)C)C(=O)N[C@@H](CC(=O)O)C(=O)N[C@@H](Cc1ccccc1)C(N)=O

What was measured:
MAb 458-1 = assay: MAb inhibition ELISA; soluble inhibitor of MAb binding to the coated C-terminal target peptide-BSA
MAb 458-4 = assay: as above
MAb 458-3 = assay: as above
MAb 458-5 = assay: as above
MAb 458-2 = assay: as above
MAb 400-1 = assay: MAb inhibition ELISA; soluble inhibitor of MAb binding to coated hG17(1-9)-“Ala”-BSA
MAb 400-2 = assay: as above
MAb 400-3 = assay: as above
MAb 400-4 = assay: as above
MAb 445-2 = assay: MAb inhibition ELISA; soluble inhibitor of MAb binding to coated hG34(16-34)-Gly 35-BSA
MAb 445-1 = assay: as above
MAb 401-2 = assay: MAb inhibition ELISA; soluble inhibitor of MAb 401-2 binding to the coated G34 N-terminal target antigen

| % Inhibition at 10 nmol/ml (250 pmoles/well) (MAb 458-1) | % Inhibition at 10 nmol/ml (250 pmoles/well) (MAb 458-4) | % Inhibition at 10 nmol/ml (250 pmoles/well) (MAb 458-3) | % Inhibition at 10 nmol/ml (250 pmoles/well) (MAb 458-5) | % Inhibition at 10 nmol/ml (250 pmoles/well) (MAb 458-2) | IC50 (MAb 400-1) | IC50 (MAb 400-2) | IC50 (MAb 400-3) | IC50 (MAb 400-4) | IC50 (MAb 445-2) | IC50 (MAb 445-1) | IC50 (MAb 401-2) | Binder |
| --- | --- | --- | --- | --- | --- | --- | --- | --- | --- | --- | --- | --- |
| 94.3% | 88.4% | 92.4% | 91.9% | 86% | 2030 nM | 85 nM | 1080 nM | 620 nM | – | – | – | EGPWLEEEEEAYGWMDF (N-terminal pyroglutamic acid (pGlu); C-terminal Phe-NH2 (amide)) [human gastrin-17 (G17), mature amidated form] |
| – | – | – | – | – | 1650 nM | 86 nM | 120 nM | 1690 nM | – | – | – | EGPWLEKEEAAYGWMDF (ends and bridges not checked) [equine G17] |
| 2.1% | – | – | – | – | 1790 nM | 77 nM | 1390 nM | 699 nM | 5000 nM | 700 nM | – | [pGlu]GPWLEEEEEAYGWMDFG [human glycine-extended gastrin-17 (G17-Gly)] |
| – | – | – | – | – | – | – | – | – | 13000 nM | 4000 nM | – | CPPPPSSYGWMDFG [hG17 (12-17)-Gly18 peptide (immunogen peptide …)] |
| 93.5% | 86.7% | 90.7% | 91.5% | 84.5% | – | – | – | – | – | – | 700 nM | B1 |
| 93.8% | 83.4% | 84.8% | 92% | 84.8% | – | – | – | – | – | – | – | DYMGWMDF-NH2 [CCK (26-33) unsulfated] |
| – | – | 1.2% | – | – | – | – | – | – | – | – | – | [pGlu]GPWLEEEE (ends and bridges not checked) [hG17(1-9) N terminus peptide] |
